Measured values taken from patent publication US8933039.

Key:
Ac-ratGLP-2(1-33) = molecular target: T1, Ac-ratGLP-2(1-33)
T1 chain: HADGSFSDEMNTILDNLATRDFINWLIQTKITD

[Aib2]hGLP-2(1-33) = molecular target: T2, [Aib2]hGLP-2(1-33)
T2 chain: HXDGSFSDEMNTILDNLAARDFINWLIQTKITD

[Ala1,Gly2]hGLP-2(1-33) = molecular target: T3, [Ala1,Gly2]hGLP-2(1-33)
T3 chain: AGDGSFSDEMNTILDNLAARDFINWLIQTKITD

[Ala4]ratGLP-2(1-33) = molecular target: T4, [Ala4]ratGLP-2(1-33)
T4 chain: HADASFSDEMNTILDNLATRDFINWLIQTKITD

[Ala5, Ala7]hGLP-2(1-33) = molecular target: T5, [Ala5, Ala7]hGLP-2(1-33)
T5 chain: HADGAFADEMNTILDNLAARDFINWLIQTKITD

[1] = molecular target: T6, [Arg-2,Arg-1]ratGLP-2(2-33)
T6 chain: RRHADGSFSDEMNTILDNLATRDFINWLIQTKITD

[Arg-l]ratGLP-2(-1-33) = molecular target: T7, [Arg-l]ratGLP-2(-1-33)
T7 chain: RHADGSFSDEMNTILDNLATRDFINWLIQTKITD

[Arg30]hGLP-2(1-33) = molecular target: T8, [Arg30]hGLP-2(1-33)
T8 chain: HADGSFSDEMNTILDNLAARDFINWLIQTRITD

[Asn2]hGLP-2(1-33) = molecular target: T9, [Asn2]hGLP-2(1-33)
T9 chain: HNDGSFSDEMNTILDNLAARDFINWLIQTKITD

[Asp1]hGLP-2(1-33) = molecular target: T10, [Asp1]hGLP-2(1-33)
T10 chain: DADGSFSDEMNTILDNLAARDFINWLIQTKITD

[Asp2]hGLP-2(1-33) = molecular target: T11, [Asp2]hGLP-2(1-33)
T11 chain: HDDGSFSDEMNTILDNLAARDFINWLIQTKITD

[D-Ala2]hGLP-2(1-33) = molecular target: T12, [D-Ala2]hGLP-2(1-33)
T12 chain: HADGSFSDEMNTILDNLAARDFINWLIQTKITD

[DAla2]ratGLP-2(1-33) = molecular target: T13, [DAla2]ratGLP-2(1-33)
T13 chain: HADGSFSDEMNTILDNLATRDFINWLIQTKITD

[Gln2]hGLP-2(1-33) = molecular target: T14, [Gln2]hGLP-2(1-33)
T14 chain: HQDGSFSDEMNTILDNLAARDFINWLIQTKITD

[Glu2]hGLP-2(1-33) = molecular target: T15, [Glu2]hGLP-2(1-33)
T15 chain: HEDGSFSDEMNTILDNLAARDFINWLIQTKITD

[Glu33]hGLP-2(1-33) = molecular target: T16, [Glu33]hGLP-2(1-33)
T16 chain: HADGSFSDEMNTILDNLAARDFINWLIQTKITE

[Glu3]ratGLP-2(1-33) = molecular target: T17, [Glu3]ratGLP-2(1-33)
T17 chain: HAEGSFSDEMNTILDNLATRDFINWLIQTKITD

[2] = molecular target: T18, [Gly2, Arg34]hGLP-2(1-34)
T18 chain: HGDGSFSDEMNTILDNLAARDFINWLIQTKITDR

[3] = molecular target: T19, [Gly2, Tyr34]hGLP-2(1-34)
T19 chain: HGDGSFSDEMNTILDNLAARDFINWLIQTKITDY

[Gly2,Ala24]hGLP-2(1-33) = molecular target: T20, [Gly2,Ala24]hGLP-2(1-33)
T20 chain: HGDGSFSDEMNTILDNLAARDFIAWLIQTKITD

[Gly2,Ala3]hGLP-2(1-33) = molecular target: T21, [Gly2,Ala3]hGLP-2(1-33)
T21 chain: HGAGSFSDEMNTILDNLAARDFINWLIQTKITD

[Gly2,Ala4]hGLP-2(1-33) = molecular target: T22, [Gly2,Ala4]hGLP-2(1-33)
T22 chain: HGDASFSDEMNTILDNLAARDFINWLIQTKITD

[Gly2,Ala5]hGLP-2(1-33) = molecular target: T23, [Gly2,Ala5]hGLP-2(1-33)
T23 chain: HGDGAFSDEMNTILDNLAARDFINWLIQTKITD

[Gly2]hGLP-2(1-33) = molecular target: T24, [Gly2]hGLP-2(1-33)
T24 chain: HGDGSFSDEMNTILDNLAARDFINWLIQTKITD

[Gly2]ratGLP-2(1-33) = molecular target: T25, [Gly2]ratGLP-2(1-33)
T25 chain: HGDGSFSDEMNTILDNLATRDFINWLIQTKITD

B1: human placental DPP-IV (Calbiochem, La Jolla, Calif., cat. #317624) (protein)
chain: MKTPWKVLLGLLGAAALVTIITVPVVLLNKGTDDATADSRKTYTLTDYLKNTYRLKLYSLRWISDHEYLYKQENNILVFNAEYGNSSVFLENSTFDEFGHSINDYSISPDGQFILLEYNYVKQWRHSYTASYDIYDLNKRQLITEERIPNNTQWVTWSPVGHKLAYVWNNDIYVKIEPNLPSYRITWTGKEDIIYNGITDWVYEEEVFSAYSALWWSPNGTFLAYAQFNDTEVPLIEYSFYSDESLQYPKTVRVPYPKAGAVNPTVKFFVVNTDSLSSVTNATSIQITAPASMLIGDHYLCDVTWATQERISLQWLRRIQNYSVMDICDYDESSGRWNCLVARQHIEMSTTGWVGRFRPSEPHFTLDGNSFYKIISNEEGYRHICYFQIDKKDCTFITKGTWEVIGIEALTSDYLYYISNEYKGMPGGRNLYKIQLSDYTKVTCLSCELNPERCQYYSVSFSKEAKYYQLRCSGPGLPLYTLHSSVNDKGLRVLEDNSALDKMLQNVQMPSKKLDFIILNETKFWYQMILPPHFDKSKKYPLLLDVYAGPCSQKADTVFRLNWATYLASTENIIVASFDGRGSGYQGDKIMHAINRRLGTFEVEDQIEAARQFSKMGFVDNKRIAIWGWSYGGYVTSMVLGSGSGVFKCGIAVAPVSRWEYYDSVYTERYMGLPTPEDNLDHYRNSTVMSRAENFKQVEYLLIHGTADDNVHFQQSAQISKALVDVGVDFQAMWYTDEDHGIASSTAHQHIYTHMSHFIKQCFSLP
**Q.** Which results are given for B1?
**A.** % Cleaved by DPP-IV (Ac-ratGLP-2(1-33)): 0%; % Cleaved by DPP-IV ([Aib2]hGLP-2(1-33)): 0%; % Cleaved by DPP-IV ([Ala1,Gly2]hGLP-2(1-33)): 0%; % Cleaved by DPP-IV ([Ala4]ratGLP-2(1-33)): 72%; % Cleaved by DPP-IV ([Ala5, Ala7]hGLP-2(1-33)): 77%; % Cleaved by DPP-IV [1]: 0%; % Cleaved by DPP-IV ([Arg-l]ratGLP-2(-1-33)): 0%; % Cleaved by DPP-IV ([Arg30]hGLP-2(1-33)): 59%; % Cleaved by DPP-IV ([Asn2]hGLP-2(1-33)): 0%; % Cleaved by DPP-IV ([Asp1]hGLP-2(1-33)): 0%; % Cleaved by DPP-IV ([Asp2]hGLP-2(1-33)): 0%; % Cleaved by DPP-IV ([D-Ala2]hGLP-2(1-33)): 0%; % Cleaved by DPP-IV ([DAla2]ratGLP-2(1-33)): 0%; extent of cleavage after 24 hour incubation (RP-HPLC) ([DAla2]ratGLP-2(1-33)): No cleavage products were detected; % Cleaved by DPP-IV ([Gln2]hGLP-2(1-33)): 0%; % Cleaved by DPP-IV ([Glu2]hGLP-2(1-33)): 0%; % Cleaved by DPP-IV ([Glu33]hGLP-2(1-33)): 55%; % Cleaved by DPP-IV ([Glu3]ratGLP-2(1-33)): 50%; % Cleaved by DPP-IV [2]: 0%; % Cleaved by DPP-IV [3]: 0%; % Cleaved by DPP-IV ([Gly2,Ala24]hGLP-2(1-33)): 0%; % Cleaved by DPP-IV ([Gly2,Ala3]hGLP-2(1-33)): 0%; % Cleaved by DPP-IV ([Gly2,Ala4]hGLP-2(1-33)): 0%; % Cleaved by DPP-IV ([Gly2,Ala5]hGLP-2(1-33)): 0%; % Cleaved by DPP-IV ([Gly2]hGLP-2(1-33)): 0%; % Cleaved by DPP-IV ([Gly2]ratGLP-2(1-33)): 0%; extent of cleavage after 24 hour incubation (RP-HPLC) ([Gly2]ratGLP-2(1-33)): No cleavage products were detected
